Test results reported in paper PMC2910265.

Target: MglA^+ of Thermus thermophilus (Thermus thermophilus)
Assay: fluorescence polarisation

fold higher affinity for MglA^+/mGppNHp than for MglA^+/GDP: 60 fold
Substance: MglB of Thermus thermophilus (natural protein)
